Patent US6586946B2, “System and method for detecting and identifying molecular events in a test sample using a resonant test structure” (Signature BioScience, Inc., priority 2000, dated 2003)

B1: turkey lysozyme (protein, UniProt P00703 19-147, looked up)
Lysozyme C: KVYGRCELAAAMKRLGLDNYRGYSLGNWVCAAKFESNFNTHATNRNTDGSTDYGILQINSRWWCNDGRTPGSKNLCNIPCSALLSSDITASVNCAKKIASGGNGMNAWVAWRNRCKGTDVHAWIRGCRL
notes: test protein

Test: Resonant frequency shift of coaxial resonator coupled to protein solution versus PBS buffer (S11 return loss)
Format: physicochemical
Settings: protein solution in PTFE tube; reference PBS pH 7.4; input test signal approximately 1 GHz, 100 KHz band
Protocol: Using the systems and methods of the present invention, several experiments were performed to detect and identify molecular events in a solution. […] The vector network analyzer used was model number HP 8714 manufactured by Agilent Technologies, Inc. (Palo Alto, Calif.) The computer is an HP Vectra computer (Hewlett Packard Company, Palo Alto, Calif.) executing a graphically user interface (LabView® platform) to control the operation of the network analyzer and to display the resulting data. The coaxial resonator 122 illustrated in FIG. 3A was used in the experiments to illuminate the reference and test samples. […] The PTFE tube 470 is used to transport the reference and test samples to the detection region of the resonant test assembly and measures 0.031″ I.D., 0.063″ O.D., wall 0.016″ in cross-section dimensions.
The proteins used for the experiment included bovine serum albumin (BSA), ribonuclease (rnase), urease, myoglobin, fibrinogen (type I-S, bovine), chicken lysozyme (egg white), and turkey lysozyme. Phosphate buffer solution (PBS, pH 7.4) was purchased from Sigma (St. Louis, Mo.) and used as the reference sample.
In the reference measurement, PBS buffer was introduced into the tube and transported to the detection region, and a S11 (return loss) measurement of the resonator was taken. In the illustrated example, the measurement was taken at 1 GHz over a 100 KHz band. From the measured S11 response, the resonant frequency fres and Q-factor of the resonator were computed and stored, as described above.
Next, each of the aforementioned protein solutions were introduced into the tube and transported to the detection region. The resonator's S11 response was measured (over the same frequency range as above) and the corresponding resonant frequency fres and Q-factor parameters derived therefrom. Subsequently, the difference in the resonant frequencies Δfres is computed. This quantity was subsequently plotted versus the resonator's measured Q-factor when electromagnetically coupled to the test sample. FIG. 6 illustrates this mapping.

Row | Molecule | change in resonant frequency of the resonator (relative to the PBS buffer)
1 | chicken lysozyme | ~6.5 KHz
2 | fibrinogen | approximately 1.75 KHz
3 | myoglobin | ~4 KHz
4 | urease | ~2 KHz
5 | B1 | ~6.75 KHz
